Among the data in patent US20220356256A1 (published 2022) are Kd values, retold here.

Some targets named below: 5067 Fz4 C6; 5056 Fz4 B7; 5075 Fz4 D2; 5073 Fz4 C12; 5057 Fz4 B8; 5054 Fz4 B5; 5048 Fz4 A11; 5045 Fz4 A8; 5039 Fz4 A2; 5074 Fz4 D1.
Common to all, as to assay: SPR
(In general: In SPR one partner is held on a chip, and binding of the other changes the refractive index at the surface.)

B1: FZD4 (Fc fusion)
chain: FGDEEERRCDPIRISMCQNLGYNVTKMPNLVGHELQTDAELQLTTFTPLIQYGCSSQLQFFLCSVYVPMCTEKINIPIGPCGGMCLSVKRRCEPVLKEFGFAWPESLNCSKFPPQNDHNHMCMEGPGDEEVPLPHKTPIQPGEE
With B1, the Kd with 5067 Fz4 C6 came out at 1.63 nM; with 5056 Fz4 B7 it was 1.14 nM; with 5075 Fz4 D2, 1.19 nM; with 5073 Fz4 C12, 0.422 nM; with 5057 Fz4 B8, 2.56 nM; with 5054 Fz4 B5, 2.16 nM. Also, the Kd with 5048 Fz4 A11 came out at 3.71 nM; in the experiment with 5045 Fz4 A8, 1.3 nM; with 5039 Fz4 A2, 2.57 nM; with 5074 Fz4 D1, 3.61 nM.

For orientation: Kd means a measure of binding affinity in units of concentration.
